Where a chain is given by its changes, count along the chain named.
Legend:
cdMMP-9 [1] = experiment: FRET inhibition selectivity test, cdMMP-9 (Example 1); type: biochemical; conditions: Fab at 500 nM
Method: (§3) For inhibition tests, 1 μM Fabs were 2-fold serially diluted into protease specific assay buffer and incubated with 1-10 nM proteases for 30 min at room temperature. […] Inhibition percentages at given concentrations were calculated by comparing the initial reaction rates in the presence or absence of inhibitor. IC50 was determined as the concentration that achieved 50% inhibition, and KI values were calculated using KI=IC50/(S/Km+1). Vmax and Km at various Fab concentrations were measured to determine the inhibition type. FRET inhibition assays were also used for selectivity tests of isolated Fabs with the relevant proteases.

cdMMP-14 [2] = biological target: T1, cdMMP-14 (Homo sapiens, UniProt P50281); experiment: In vitro proteolytic stability of Fab with its target protease (cdMMP-14); type: physicochemical; set-up: human MMP-14 (residue 114-320); hexahistidine (C); made in house; host or cells: E. coli (periplasm); conditions: 1 μM Fab with 1 μM protease, 37° C., 24 hours, SDS-PAGE
BACE2 = biological target: T2, BACE2 (Homo sapiens, UniProt Q9Y5Z0); experiment: FRET inhibition selectivity test, BACE2; type: biochemical; conditions: IgG
T2 sequence (Q9Y5Z0 63-518): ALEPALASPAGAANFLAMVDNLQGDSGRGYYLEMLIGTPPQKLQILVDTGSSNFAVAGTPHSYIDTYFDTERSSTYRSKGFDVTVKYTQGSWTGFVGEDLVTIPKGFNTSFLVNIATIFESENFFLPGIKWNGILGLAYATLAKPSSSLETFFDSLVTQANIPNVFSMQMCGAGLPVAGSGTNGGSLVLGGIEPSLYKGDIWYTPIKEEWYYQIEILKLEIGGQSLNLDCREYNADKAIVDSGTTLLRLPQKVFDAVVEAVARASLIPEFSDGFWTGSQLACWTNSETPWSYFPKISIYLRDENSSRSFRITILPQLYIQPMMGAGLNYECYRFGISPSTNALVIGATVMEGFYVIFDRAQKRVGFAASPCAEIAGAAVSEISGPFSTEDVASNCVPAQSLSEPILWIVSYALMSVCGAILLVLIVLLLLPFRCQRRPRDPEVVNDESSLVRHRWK
Method: as §3

BACE1 [3] = biological target: T3, BACE1 (Homo sapiens, UniProt P56817); experiment: Amyloid precursor protein (MBP-APP571-696) degradation by BACE1; type: biochemical; conditions: 1 μM IgG, 1 μM BACE1, 5 μM MBP-APP, 37° C., 24 h; 86% without IgG
T3 construct: human β-secretase 1 (BACE1, residue 46-457); made in house; host or cells: HEK293F (secreted, protein A purified)
Method: (§4) For amyloid precursor protein (APP) degradation studies, APP571-696 was cloned to the C-terminal of maltose binding protein (MBP) for E. coli expression and purified using amylose resin (NEB). 5 μM purified MBP-APP was incubated with 1 μM BACE1-Fc in the absence or presence of 1 μM IgG in BACE1 assay buffer at 37° C. for 24 h. In addition, APP571-696 was cloned to a pcDNA plasmid carrying a SPE leader for secretion expression. Transfected HEK293F cells were cultured in Expi293 media for 72 hrs with the presence of 14-800 nM purified IgG. The supernatants were clarified by centrifugation and 0.45 μm filtration, and produced Aβ1-40 was quantified by ELISA (Abcam).

BACE1 [4] = biological target: T3, BACE1; experiment: FRET peptide inhibition assay, BACE1 (M-2420); type: biochemical; conditions: IgG format; BACE-1, FRET peptide
Method: as §3

cdMMP-12 mutant D4 [5] = biological target: T4, cdMMP-12 mutant D4 (Homo sapiens, UniProt P39900, A167E/A173P/A252Q/H206S/I245T/K233R/M156E/N119Q/N126H/R135E/T215V/V161I/Y113D/Y132K); experiment: Proteolytic stability of Fabs with cdMMP-12 D4; type: physicochemical; conditions: 2 μM Fab, 2 μM cdMMP-12 D4, 4 h, 37° C.
T4 construct: hexahistidine (C); made in house; host or cells: E. coli BL21, pET32b (cytoplasmic, soluble fraction)
Method: (§1) Proteolytic stability tests 2 μM purified Fabs were incubated with 2 μM cdMMP-12 wt/D4 in 50 mM HEPES, 150 mM NaCl pH 7.5 at 37° C. for 4 h. Samples were analyzed by using 12% non-reducing SDS-PAGE and stained with Coomassie blue. Densitometric interpretation was conducted using a ChemiDoc imager (Bio-Rad).

cdMMP-12 wt [6] = biological target: T5, cdMMP-12 wt (Homo sapiens, UniProt P39900); experiment: Proteolytic stability of Fabs with cdMMP-12 wt; type: physicochemical; conditions: 2 μM Fab, 2 μM cdMMP-12 wt, 4 h, 37° C.
T5 construct: hexahistidine (C); made in house; host or cells: E. coli BL21 (pET32b, cytoplasmic)
Method: as §1

cdMMP-14 [7] = biological target: T1, cdMMP-14; experiment: Bio-layer interferometry on cdMMP-14; type: binding; set-up: human MMP-14 (residue 114-320); hexahistidine (C); made in house; host or cells: E. coli periplasm; conditions: listed as LG4; read-out: KD toward cdMMP-14
cdMMP-12 wt [8] = biological target: T5, cdMMP-12 wt; experiment: FRET peptide inhibition assay, cdMMP-12 wt; type: biochemical; conditions: toward cdMMP-12 wild type; listed as LG4
Method: (§2) FRET peptide inhibition assays In 96-well assay plates (Corning), 60/250/350/10/10/30 nM of (cd)MMP-1/-7/-9/-12 D4/-12 wt/-14 were preincubated with 1 nM-1 μM purified Fabs for 30 min at room temperature then 1 μM substrate M-2350 (Bachem) was added. Generated fluorescent signals (λEx=328 nm, λEm=393 nm) were monitored at 37° C. to measure the initial velocities. To calculate inhibition constants (KIs), data were fit with the equations for slow tight-binding inhibitors. The inhibition type of the Fabs was determined using the initial velocities of cdMMP-12 D4 as a function of substrate concentration (250-2000 nM) at various Fab concentrations (31-500 nM). The values of Vmax and Km were derived from linearization in accordance with the Lineweaver-Burk equation.

cdMMP-12 wt [9] = biological target: T5, cdMMP-12 wt; experiment: Fibronectin proteolysis inhibition, cdMMP-12 wt (western blot); type: biochemical
Method: Inhibition tests with macromolecular substrates 10 μg/mL FITC-conjugated elastin (AnaSpec) was incubated with 7 nM cdMMP-12 D4/wt and 2-2000 nM purified Fab in 50 mM Tris-HCl, 150 mM NaCl, 5 mM CaCl2), 100 μM ZnCl2 pH 7.5. Generated fluorescent signals were measured at 12 h with λEx of 490 nm and λEm of 520 nm. […] The samples were separated on 5% non-reducing SDS-PAGE and analyzed by western blotting with anti-Fibronectin antibody (Abcam) and chemiluminescent substrate (Thermo Scientific). […] Assays without cdMMP-12s or Fabs were performed as controls.

cdMMP-12 wt [10] = biological target: T5, cdMMP-12 wt; experiment: Inhibition of proteolysis of modified TEM-1 ([…]) by cdMMP-12 wt; type: biochemical; conditions: 10 μM Fab, 700 nM cdMMP-12 wt, 250 nM modified TEM-1, 4 h
Method: Inhibition tests with macromolecular substrates 10 μg/mL FITC-conjugated elastin (AnaSpec) was incubated with 7 nM cdMMP-12 D4/wt and 2-2000 nM purified Fab in 50 mM Tris-HCl, 150 mM NaCl, 5 mM CaCl2), 100 μM ZnCl2 pH 7.5. Generated fluorescent signals were measured at 12 h with λEx of 490 nm and λEm of 520 nm. For inhibition assays on fibronectin, 200 nM fibronectin (Corning) was incubated with 200-350 nM cdMMP-12 wt and 2 μM GM6001 or 0.1-6 μM Fabs in 50 mM HEPES, 150 mM NaCl pH 7.5 at 37° C. for 2-4 h. The samples were separated on 5% non-reducing SDS-PAGE and analyzed by western blotting with anti-Fibronectin antibody (Abcam) and chemiluminescent substrate (Thermo Scientific). For inhibition assays on modified TEM-1 carrying cleavable sequence ([…] (SEQ ID NO:134)) and a N-terminal HA tag, 250 nM modified TEM-1 was incubated with 700 nM cdMMP-12 wt and 10 μM Fabs in 50 mM HEPES, 150 mM NaCl pH 7.5 at 37° C. for 4 h. The samples were separated on 12% non-reducing SDS-PAGE, and the modified TEM-1 was visualized by western blotting using anti-HA antibody (Invitrogen) and chemiluminescent substrate. Assays without cdMMP-12s or Fabs were performed as controls.

cdMMP-12 mutant D4 [11] = biological target: T4, cdMMP-12 mutant D4; experiment: FRET peptide inhibition assay, cdMMP-12 D4; type: biochemical; conditions: cdMMP-12 D4, FRET peptide, 31-500 nM Fab
Method: as §2

cdMMP-9 [12] = experiment: Bio-layer interferometry on cdMMP-9; type: binding; conditions: listed as LG4; read-out: KD toward cdMMP-9
Target sequence in this assay (P14780 with tags, fused parts or gaps DEL216-390 limits assumed): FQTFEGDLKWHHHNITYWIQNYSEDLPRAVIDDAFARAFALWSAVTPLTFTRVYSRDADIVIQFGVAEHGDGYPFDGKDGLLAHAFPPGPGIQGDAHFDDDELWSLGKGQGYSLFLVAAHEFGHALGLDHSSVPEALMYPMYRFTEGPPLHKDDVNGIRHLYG

[13] = tested on: HEK293F cells expressing APP571-696; experiment: Aβ40 formation in HEK293F cells expressing APP571-696 (ELISA); type: cell-based; conditions: HEK293 cells expressing APP, IgG 72 h, dose-dependent
Method: as §4

T5 sequence (P39900 106-263): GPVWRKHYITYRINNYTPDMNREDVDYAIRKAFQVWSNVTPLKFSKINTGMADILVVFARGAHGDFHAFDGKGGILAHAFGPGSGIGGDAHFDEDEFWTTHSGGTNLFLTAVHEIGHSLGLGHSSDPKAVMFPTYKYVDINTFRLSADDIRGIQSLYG
T4 sequence (P39900 106-263 Y113D/N119Q/N126H/Y132K/R135E/M156E/V161I/A167E/A173P/H206S/T215V/K233R/I245T/A252Q): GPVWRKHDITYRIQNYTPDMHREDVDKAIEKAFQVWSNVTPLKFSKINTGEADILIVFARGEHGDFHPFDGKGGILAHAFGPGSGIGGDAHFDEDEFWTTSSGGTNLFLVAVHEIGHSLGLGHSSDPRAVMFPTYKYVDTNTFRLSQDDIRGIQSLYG
T3 sequence (P56817 46-457): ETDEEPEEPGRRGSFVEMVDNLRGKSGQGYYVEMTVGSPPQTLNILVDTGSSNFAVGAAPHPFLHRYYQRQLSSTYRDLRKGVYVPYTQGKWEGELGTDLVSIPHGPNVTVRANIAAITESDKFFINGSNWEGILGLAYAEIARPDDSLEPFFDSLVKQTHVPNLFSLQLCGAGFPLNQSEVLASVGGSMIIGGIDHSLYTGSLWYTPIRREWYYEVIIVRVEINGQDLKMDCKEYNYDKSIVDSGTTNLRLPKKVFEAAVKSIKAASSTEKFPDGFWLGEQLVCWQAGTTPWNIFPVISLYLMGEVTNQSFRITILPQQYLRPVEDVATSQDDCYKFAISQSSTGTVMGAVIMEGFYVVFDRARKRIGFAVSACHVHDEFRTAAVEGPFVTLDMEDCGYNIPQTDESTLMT

B1: Fab 2B4: anti-MMP-14 antibody clone; VL SEQ ID NO:88, VH SEQ ID NO:1, CDR-H3 SEQ ID NO:4 (antibody, V domains shown)
VH: EVQLVESGGGLVQPGGSLRLSCAASGFNLYSSYIHWVRQAPGKGLEWVASIYSSYSSTYYADSVKGRFTISADTSKNTAYLQMNSLRAEDTAVYYCARSDSAVYSVRRMGSSGLAAYAMDYWGQGTLVTVSSAS
VL: DIQMTQSPSSLSASVGDRVTITCRASQSVSSAVAWYQQKPGKAPKLLIYSASSLYSGVPSRFSGSRSGTDFTLTISSLQPEDFATYYCQQYSYGYSSLITFGQGTKVEIKR
Inhibition of cdMMP-9 (selectivity) (cdMMP-9 [1]): did not inhibit | Fab remained intact after exposure to protease (cdMMP-14 [2]): 76%

B2: IgG B1A4: anti-BACE1 inhibitory Fab B1A4 converted into IgG format (antibody, V domains shown)
VH: EVQLVESGGGLVQPGGSLRLSCAASGFNISYSSIHWVRQAPGKGLEWVAYISPSSSYTSYADSVKGRFTISADTSKNTAYLQMNSLRAEDTAVYYCARHYYVSVGSGIDYWGQGTLVTVSSAS
VL: B1 VL with L73P, Y91A, Y93A, G94S, Y95P, S96Y, S97A
Inhibition of BACE2 (selectivity) (BACE2): but not BACE2 | Cleavage of APP571-696 by BACE1 in presence of IgG (BACE1 [3]): 37% | Inhibition Potency KI (associated IgG, in parentheses) (BACE1 [4]): 35 nM

B3: Fab LG4: anti-MMP-12 antibody clone; VL SEQ ID NO:112, VH SEQ ID NO:114, CDR-H3 SEQ ID NO:117 (antibody, V domains shown)
VH: EVQLVESGGGLVQPGGSLRLSCAASGFNLYYSYMHWVRQAPGKGLEWVASISSYYGYTSYADSVKGRFTISADTSKNTAYLQMNSLRAEDTAVYYCARSPIVYYELFMFIDMGAQGWKYGMDYWGQGTLVTVSSAS
VL: DIQMTQSPSSLSASVGDRVTITCRASQSVSSAVAWYQQKPGKAPKLLIYSASSLYSGVPSRFSGSRSGTDFTLTISSLQPEDFATYYCQQTFYPFTFGQGTKVEIKR
Degradation of Fab by cdMMP-12 D4 (cdMMP-12 mutant D4 [5]): no significant degradation | Fab remained intact after exposure to cdMMP-12 wt (cdMMP-12 wt [6]): 54% | Kd (cdMMP-14 [7]): ~700 nM | Inhibition FRET peptide (cdMMP-12 wt [8]): non- | Fibronectin remaining after cdMMP-12 wt hydrolysis (cdMMP-12 wt [9]; 6 μM Fab, 350 nM wt cdMMP-12, 200 nM fibronectin, 37° C.): significant amounts of fibronectin remained | Inhibition Fibronectin IC50 (cdMMP-12 wt [9]; toward cdMMP-12 wild type, 200 nM enzyme, 200 nM fibronectin): Inhib. | Inhibition of modified TEM-1 (PLGLEEAK) proteolysis (cdMMP-12 wt [10]): significant inhibition | Type of inhibition (Lineweaver-Burk) (cdMMP-12 mutant D4 [11]): substrate competitive manner | Kd (cdMMP-9 [12]): 720 nM

B4: IgG B2B2: anti-BACE1 IgG of clone B2B2 (antibody, V domains shown)
VH: EVQLVESGGGLVQPGGSLRLSCAASGFNISSYYMHWVRQAPGKGLEWVASIYSSYGYTYYADSVKGRFTISADTSKNTAYLQMNSLRAEDTAVYYCARYWGYYAWFGSHPWAYGAFDYWGQGTLVTVSSAS
VL: DIQMTQSPSSLSASVGDRVTITCRASQSVSSAVAWYQQKPGKAPKLLIYSASSLYSGVPSRFSGSRSGTDFTLTISSLQPEDFATYYCQQYGYYLITFGQGTKVEIKR
Reduction of amyloid beta (Aβ40) production [13]: 80%
